According to patent US20030044789A1, “Identification and quantification of a protein carrying an N-terminal polyhistidine affinity tag” (priority 2000, published 2003):

System: Penta-His antibody
Assay: Competition study with HisTagged proteins (HisTag FPIA)
Type: binding
Details: 1-2 nM fluor-AHHHHHHG, 10 nM Penta-His antibody, approx. 60 min at room temperature; read-out: approximate IC50 (concentration of competitor required to decrease FP signal by 50%)
Description: Purified N-terminal HisTagged proteins were serially diluted into PBS +0.01% NP-40 in a multiwell plates. 1-2 nM fluorescein labeled peptide (fluor-AHHHHHHG) and 10 nM of Penta-His antibody were then added to each reaction to a final volume of 50-100 ul. After approximately 60 min incubation at room temperature to insure equilibrium binding, the polarization was measured on a Tecan Polarian multiwell instrument.
Protein Kinase A (PKA) is a serine/threonine kinase, ZAP-70 is a tyrosine kinase, and the Estrogen Receptor Ligand Binding Domain (ER-LBD) is comprised of the C-terminal 300 amino acids of ERα; all three proteins were highly purified and active.

B1: ZAP-70: recombinant human tyrosine kinase with N-terminal six-histidine fusion (protein, UniProt P43403 1-619, looked up)
Tyrosine-protein kinase ZAP-70: MPDPAAHLPFFYGSISRAEAEEHLKLAGMADGLFLLRQCLRSLGGYVLSLVHDVRFHHFPIERQLNGTYAIAGGKAHCGPAELCEFYSRDPDGLPCNLRKPCNRPSGLEPQPGVFDCLRDAMVRDYVRQTWKLEGEALEQAIISQAPQVEKLIATTAHERMPWYHSSLTREEAERKLYSGAQTDGKFLLRPRKEQGTYALSLIYGKTVYHYLISQDKAGKYCIPEGTKFDTLWQLVEYLKLKADGLIYCLKEACPNSSASNASGAAAPTLPAHPSTLTHPQRRIDTLNSDGYTPEPARITSPDKPRPMPMDTSVYESPYSDPEELKDKKLFLKRDNLLIADIELGCGNFGSVRQGVYRMRKKQIDVAIKVLKQGTEKADTEEMMREAQIMHQLDNPYIVRLIGVCQAEALMLVMEMAGGGPLHKFLVGKREEIPVSNVAELLHQVSMGMKYLEEKNFVHRDLAARNVLLVNRHYAKISDFGLSKALGADDSYYTARSAGKWPLKWYAPECINFRKFSSRSDVWSYGVTMWEALSYGQKPYKKMKGPEVMAFIEQGKRMECPPECPPELYALMSDCWIYKWEDRPDFLTVEQRMRACYYSLASKVEGPPGSTQKAEAACA
modifications: N-terminal polyhistidine tag
  IC50: ~36 nM
